Laboratory results: publication PMC3457934

Target: in vitro assembled HIV-1 CA-NC complexes (HIV-1)
Experiment: co-sedimentation; 5 µl in vitro assembled CA-NC particles incubated with 200 µl 293T cell lysate (capsid-binding buffer plus 1X PBS) at room temperature for 1 hour; spun through a 70% sucrose cushion at 100,000×g for 1 hour at 4°C; pellet (BOUND) and INPUT analysed by Western blotting (anti-GFP, anti-HA, anti-p24); fluorescent quantification of three independent experiments

| Substance | ratio bound/input |
| --- | --- |
| GFP-RanBP2-ΔCyp deletion mutant (from UniProt P49792 1-2786) (domain or fragment) | 0.39 |
| GFP-RanBP2 (full-length Nup358/RanBP2 fused to GFP) (from UniProt P49792 1-3224) (natural protein) | 1 |
